Measured values published in PMC6141813, “NagRBt Is a Pleiotropic and Dual Transcriptional Regulator in Bacillus thuringiensis”.

B1: chiA dre probe (D) (dsDNA)
DNA 1: AACCAATCATCTAGACAACTATATAACACGAACGTTTTAC
DNA 2: GTAAAACGTTCGTGTTATATAGTTGTCTAGATGATTGGTT
B2: crr (ptsA) dre probe (H) (dsDNA)
DNA 1: TTTTTTTGCCCAACTTGTCTAGAGGTCTTTACTACATTTT
DNA 2: AAAATGTAGTAAAGACCTCTAGACAAGTTGGGCAAAAAAA

Target: NagRBt (formerly YvoABt) (Bacillus thuringiensis strain Bti75, UniProt A0A1T3UL85 1-243)
Experiment: EMSA; EMSA: 10 mM Tris-HCl pH 8.0, 1 mM MgCl2, 50 mM NaCl, 0.5 mM DTT, 0.5 mM EDTA, 5% glycerol, 30 C, 30 min; 0.2 uM probe; competition with 3.0 uM NagRBt, 400-fold
Details: protein: recombinant; tags: C-terminal His (pET-28a(+)); chain copies: 2; unlabeled (EB stain); blunt

Binder	binding result
B1	binds
B2	binds
